From the nanobody polyreactivity screen of Harvey et al. (2022)

Assay: yeast display, Sf9 membrane polyspecificity reagent, FACS + sequencing; frameworks hold sequencing errors
In short: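 Synthetic nanobody libraries on Saccharomyces cerevisiae BJ5465 were galactose-induced for 36–48 hours, stained 1 hour at 4 °C with 10% biotinylated, detergent-solubilized Sf9 membrane reagent and enriched on streptavidin microbeads. FACS then separated cells into low and high (top ~1%) gates by anti-HA (expression) and streptavidin (reagent binding) fluorescence. Genes were colony-PCR amplified, MiSeq 2 × 250 sequenced and CDR-length filtered. A clone's polyreactivity label is that of its gate of origin.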

Sequence	polyreactivity (PSR sort gate)
QVQLVESGGGLVQAGGSLRLSCAASGSTLPTNAMGWYRQAPGKEREFVAAISDNGGSTYYADSVKGRFTISRDNAKNTVYLQMNSLKPEDTAVYYCAADWDESYSYRRYGHYDYWGQGTQVTVSS	low polyreactivity
QVQLVESGGGLVQAGGSLRLSCAASGSTFNNYAMGSYRQAPGKVREFVAAINGSGGSTYYADSVKGRFTISRDNAKNTVYLQLNSRKPEDPAVYYCAADVSATAYYDLMDYWVQGTQVTVSS	low polyreactivity
QVQLVESGGGLVQAGGSLRLSCAASGFIFYYNAMGWYRQAPGKERELVAAISTDGGSTYYADSVKGRFTISRDNAKNTVYLQMNSLKPEDTAVYYCAANRYKRYDYWGQGTQVTVSS	low polyreactivity
QVQLVESGGGLVQAGGSLRLSCAASGVIFVWYAMGWYRQAPGKERELVAAISSGGSTYYADSVKGRFTISRDNAKNTVYLQMNSLKPEDTAVYYCAADLWYYAYSYDYWGQGTQVTVSS	high polyreactivity
QVQLVDSGGGLVQAGGSLRLSCAASGSTLAYYTMGWYRQAPGKERELVAAITSGGFTHYADSVKGRFTISRDNAKNTVYLQMNSLKPEDTAVYYCAAKRGPVYYGYYYLGQGTQVTVSS	high polyreactivity
QVQLVESGGGLVQAGGSLRLSCAASGSIFLYNAMGWYRQAPGKERELVAAISASGGSTYYADSVKGRFTISRDNAKNTVYLQMNSLKPEDTEVYFCAAQYSDYDGFTWPLPPRYDYWGQGTQVTVSS	high polyreactivity
QVQLVDSGGGLVQAGGSLRLSCAASGFTFYANAMGWYRQAPGTERELVAALSRGVSPTYADSVKGRFTISRDNGKNTVYLEMNSLKPEDTAVYYCASDGNVIAQGYDYWGQGTQVTVSS	low polyreactivity
QVQLVESGGGIVQAGGSLRLSCAASGRIFDGYAMGWYRQAPGKESQLVAAISATGGSTYYADSVKGRFTISRDNAKNTVYLQMNSLKPEDTAVYYCATDYVRGLYRYKLSRYEYWGQGTQETVSS	low polyreactivity
QVQLVESGRRLVQAGGSLRLTCAASGRTFVTNAMGWYRQAPGKERELVAAISSKGGSTYYADSVKGRFTISRDNAKNTVYLQMNSLKPEDTAVYDCNAEGQPLYVSWHDHRYIYGFDYWGQGTQVTVSS	low polyreactivity
QVQLVESGGGLVQAGGSLRLSCAASGMGWYRQAPGKERELVARISGGVSTNYADSVKGRFTISRDNAKNTVYLQMNSLKPEDTAVYYCAADPLDTYDYWGQGTQVTVSS	low polyreactivity
QVQLVESGGGLVQAGGSLRLSCAASGSTFGFNAMGWYRQAPGKEREFVAAITRSGGSTYYADSVKGRFTISRDNAKNTVYLQMNSLKPEDTAVYYCAKRRYFYSQWVRAFDYWGQGTQVTVSS	high polyreactivity
QVQLVESGGGLVQAGGSLRLSCAASGFTFWRNVMGWYRQAPGKERELVAVISRGGSTNYADSVKGRFTISRDNAKNTVYLKMNSLIPEDTAVYYFAKYARGPSKVDYWGQGTQVTVSS	high polyreactivity
QVQLVESGGGLVQAGGSLRLSCAASGLIFYLYAMGWYRQAPGKEMELVAAISSGGSTYYADSVKGRFTISRDNAKNTVYLQMISLKPEDTAVYYCNARYYYVSGLQAYYYWGQGTQVTVSS	high polyreactivity
QVQLVESGGGLVQAGGSLRLSCAASGLIFYYNAMGWYRQAPGKERELVATIRGSGSSTYYADSVKGRFTISRDNAKNTVYLQMNSLKPEDTAVYYCAAKGYRCFRHGGYYFKFDYWGQGTQVTVSS	high polyreactivity
QVQLVESGGGLVQAGGSLRLSCASSGRTFWFYTMGWYRQAPGKERELVAAISSGGSTNYADSVKGRFTISRDNAKNTVYLQMNSLKPEDTAVYYCNKPPPNRGRYDYWGQGTQVTVSS	low polyreactivity
QVQLVESGGGLVQAGGSLRLSCSASGSTFYGYAMGWYRQAPGKEWELVAAINWSGGSTYYADSVKGRFTISRDNAKNTVYLQMNSLKPEDTAVYYCNKAWLGSVSRRYYYWGQGTQVTVSS	high polyreactivity
QVQIVESGGGLVQAGGSLRLSCAASGFIFVFNAMGWYRQAPGKERELVAAINGGDITNYADSVKGRFTISRDNAKNTVYLQMNSLKPEDTAVYYCAADGEDSLWTGYDYDYWGQGNQVTVSS	low polyreactivity
QVQLVESGGGLVQAGGSLRLSCAASGIIFAYNAMGWYRQAPVKERELVAAISVIGGTTYYADSVKGRFTISRDNAKITVYLQMNSLKPEDTAVYYCAVDSVQYGGGYERLHDLYYWGQGTQVTVSS	low polyreactivity
QVQLVESGGGLVQAVGSLRLSCAASGSTLYRYALGWYRQAPGKARELDAAISSSGGSTYYADSVKGRFTISRDNAKNTVYLQMNSLKPEDTEVYYCARVARASGVRWYYYWGQGTQVTVSS	high polyreactivity
QFQLVESGGCLVQAGCSLRLSCAASGFIIFSNAMGLYRQAPGKERELVAAISRIGVSTFYADSVKGRLTISRDNAKNTVYLQMNSLKPEDTAVYYCNKSNPDYDGLAIHAFDYWGQGTQVTVSS	low polyreactivity
QVQLVESGGGLVQAGGSLRLSCAASGFILDYNAMGWYRQAPGKERELVATITGRGDRTYYADSVKGRVTISRDNAKNTVYLQMNSLKPEDTAGYYCAAGFDGSRHPGFDSWGQGTQVTVSS	low polyreactivity
QVQLVESGGGLVQAGGSLRLSCAASGFIFYRYAIGWYRQEPGKERELVAAITRSGRSTYYADSVKGRFTISRDNAKNTVYLQMNSLKAEDTAVYYCAVFGSYWWRGLSEDYWGQGTQVTVSS	high polyreactivity

Sequence	polyreactivity (PSR sort gate)
QVQLVESGGGLVQAGGSLRLSCAASGRIFDYNAMGWYRQAPVKERELVATITTGGSTYYADSVKGRFTISRDNAKNTVYLQMYSLKPEDTAVYYCAARRWYFHYFAYGYWGQGTQVTVSS	low polyreactivity
QVQLVESGGCLVKAGGSLRLSCAASGSTFHYYPMGWYRQAPGKERELFAAISTSGVRTYYADSVKGRFTISRDNAKNTVYLQMNRLKPEDTAVYYCAARRGYVKGKTYDYWGQGSQVTVSS	high polyreactivity
QVQLVESGGGLVQAGGSLRLSCAASGFILGTYAMGWYRQAPGKERELVAAISRSGGSTYYADSVKGRFTISRDNAKNSVYLQMNSLKPEDTAVYYCNTVRVHGFPIDRIYDYWGQGTQVTVSS	high polyreactivity
QVQLVESGGGLVQAGGSLRLSCAASGSIFATYAMGWYRQAPGKERELVAAISRSGGSTNYADSVKGRFTISRDNAKNTVYLQMNSLKPEDTAVYYCAAVRPHWYGQGWALYWFEYWGQGTQVTVSS	low polyreactivity
QVQLVESGGGLVQAGGSLRLSCAASGSTFRYNAMGWYRQAPWKERELVAAITSGGSTYYADSVKGRFTISRDNAKNTVYLQMNSLKPEDTAVYYCAALWQSRWYKMDYWGQGTQVTVSS	high polyreactivity
QVQLVESGGGLVQAGGSLRLSCAASGSIFGDYAMGWYRQAPGKERELVATITWIGGSTYYADSVKGRFTISRDNAKNTVYLQMNSLKPEDTAVYYCAATKYVDVKYYYWGQGTQVTVSS	low polyreactivity
QVQLVESGGGLVQAGGSLRLSCAASGSTFGWYTMGWYRQAPGKERELVATISYGGGITNYADSVKGRFTISRDNAKNTVYLQMNSLKPEDTAVYYCAARGDGVTNPFGYWGQGTQVTVSS	high polyreactivity
QVQLVESGGGLVQAGGSLRLSCAASGRIFGGYAMGWYRQAPGKERELVAAISSSGGRTYYADSVKGRFTISRDNSKKTVYLQMNSLKPEDTAVYYCNAGAGQRVSGHSFEDWGQGTQVTVSS	high polyreactivity
QVQLVESGGGLVQAGGSLRLSCAASGSTFESYAMGWYRQAPGKERELVAAISQNGGSTYYADSVKGRFTISRDNAKNTVYLQMNSLKPEDTAVYYCNADVYPYYRKPWMDYWGQGPQVTVSS	low polyreactivity
QVQLVESGGGLVQAGGSLRLSCAASGFIFTFYAMGWYRQAPGKERELVAAISSSGGSTYYADSVKGRFTISRDNAKNTVYLQMNSLKPEDTAVYYCNAVRYHARSGWSDYWGQGTQVTVSS	high polyreactivity
QVPLVESVGGLVQAGGSLRLSCAASGSTFLSNAMGWYRQAPGKERELVASINWIGGSTRYADSVKGRFTISRDNAKNTVYLQMNSLKPEDTAVYYCASRRRWGGHGAFLYYYWGQGTQVTVSS	high polyreactivity
QVQLVESGGGLVQAGGSLRLSCAASGRTFETNAMGWYRQAPGKERELVASINWSGGSTYYADSVKGRFTISRDNAKNTVYLQMNSLKPEDTAVYYCAAEHSYWDWWSYYYWGQGTLVTVSS	low polyreactivity
QVQLVESGGGLVQAGGSLRLSCAASGFTFRRYDMGWYRQAPGKERELVATINRGGSTDYADSVKGRFTISRDNAKNTVYLQMNSLKPEDNAVYYCAADSYSTCADDYWGQGTQVTVSS	high polyreactivity
QVQLVESGGGLVQAGGSLRLSCAASGRIFGYYAMGWYRQAPGKERELVAGIDWSGGNTYYADSVKGRFTISRDNAKNTVYLQMNSLKPEDTAVYYCNTEGGRDTAWYDYWGQGTQVTVSS	low polyreactivity
QVQLVESGGGLVQAGGSLRLSCAASGFTFYRYAMGWYRQAPGKERELVAVISSSGGRTYYADSVKGRFTISRDNAKNTVYLQMNSLKPEDTAVYYCAAVGAVRREDYWGQGTQVTVSS	high polyreactivity
QVQLVESGGGLVQAGGSLRLSCAASGLTFYSYAMGWYRQAPGKERELVAAITWSGGGTYYADSVKGRFTISRDNAKNTVYLQMNSLKPVDTADYYCAADYWGYDIYYGLTERESWGQGTQVTVSS	high polyreactivity
QVQHVESGAGLVQAGGSLRLRCAASGIIFYYYAMGWYRQAPGKERELVASISRSGTDTYYADSVKGRFTISRDNAKYTVYLQMNSLIPEDTAVYDCAAKLYSKRTGARMNYWGQGTQVTVSS	high polyreactivity
QVQLVESGGGLVQAGGSLRLSCAASGSIFPDYAMGGYRQAPGKERELVAAITWSGGNTYYADSVKGRFTISRDNAKNTVYLQMNSLKPEDTAVYYCAADISLHWYYYRRYNYWGQGTQVTVSS	low polyreactivity
QVQLVESGGGLVQAGGRLRLSCAASGSTFRYYAMGWYRQAPWKERELVAAISSTGTRTYYADSVKGRFTISRDNAKNTVYLQMNSLKPEDTAVSYCAADYVRYATRYDYWGQGTQVTVSS	high polyreactivity
KVQLVESRGGLVQAGGSLRLSCAASGIIFYTYAMGWNRQAPGKERELVASISWDVDSTNYADSVKGRFTISRDNAKNTVYLQMNSLKPEYTAVYYCAVDYTFDSYWYWVDYYEYGYWGQGTQVTVSS	high polyreactivity
QVQLVESGGGLVQAGGSLRLICAASGSIFYRYAMGWYRQAHGKEREFVAAITYSSRTTYYADSVQGRFTISRDNAKNTVYLQMNSLKPEDTAVYYCAAELSSSYYRRAMDYCGQGTQVTVSS	high polyreactivity
